Reference: the supplement of paper PMC7877785
± gives the uncertainty stated by the source.

Assay: self-splicing fitness, log relative to wild type (ln ratio); higher = more splicing; Tetrahymena group I intron in knt gene, E. coli kanamycin selection, DiMSum; sequences stand for … in CUCUCU…GGAGGGAAAAGUUAUCAGGCAUGCACCUGGUAGCUAGUCUUUAAACCAAUAGAUUGCAUCGGUUUAAAAGGCAAGACCGUCAAAUUGCGGGAAAGGGGUCAACAGCCGUUCAGUACCAAGUCUCAGGGGAAACUUUGAGAUGGCCUUGCAAAGGGUAUGGUAAUAAGCUGACGGACAUGGUCCUAACCACGCAGCCAAGUCCUAAGUCAACAGAUCUUCUGUUGAUAUGGAUGCAGUUCACAGACUAAAUGUCGGUCGGGGAAGAUGUAUUCUUCUCAUAAGAUAUAGUCGGACCUCUCCUUAAUGGGAGCUAGCGGAUGAAGUGAUGCAACACUGGAGCCGCUGGGAACUAAUUUGUAUGCGAAAGUAUAUUGAUUAGUUUUGGAGUACUCGUGGUCG
Method in brief: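 DiMSum derived fitness as the error-weighted combination of fold changes across replicates, kanamycin versus no kanamycin, normalised to wild type. E. coli BL21(DE3) held the library, which randomised all eight P1ex-region intron nucleotides within the knt kanamycin-resistance gene on pET-22b(+). Six replicate transformations grew overnight at 37°C or 30°C on LB agar with or without 25 μg/mL kanamycin, also containing 100 μg/mL carbenicillin, 50 μM IPTG and 0.2% rhamnose, and pooled colonies were amplicon-sequenced on an Illumina HiSeq 2500.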

Sequence | self-splicing fitness (ln) (30 °C) | self-splicing fitness (ln) (37 °C)
AGAGAGCAAUAUUACGGCUA | -1.86 ± 0.46 | -2.19 ± 0.39
CCCCAGCAAUAUUACGUGGC | -4.37 ± 0.14 | -2.74 ± 0.12
CACAAGCAAUAUUACGCAAC | -3.27 ± 0.26 | -2.27 ± 0.32
GCGAAGCAAUAUUACGCGCU | -1.85 ± 0.24 | -1.48 ± 0.4
GCUUAGCAAUAUUACGUGGG | -1.53 ± 0.093 | -1.72 ± 0.1
ACAGAGCAAUAUUACGAUCU | -1.68 ± 0.22 | 
CGGUAGCAAUAUUACGCGGU | -3.28 ± 0.22 | -2.96 ± 0.16
GGACAGCAAUAUUACGACGC | -0.126 ± 0.065 | 0.658 ± 0.11
GUCGAGCAAUAUUACGCCCA |  | -0.376 ± 0.33
CACUAGCAAUAUUACGGUGA | -3.47 ± 0.21 | -2.22 ± 0.18
GGGCAGCAAUAUUACGCGGC |  | -1.26 ± 0.38
CAAUAGCAAUAUUACGAUAU | -4.72 ± 0.34 | -2.59 ± 0.22
UUUGAGCAAUAUUACGUUAA | -2.96 ± 0.29 | -1.57 ± 0.22
ACCUAGCAAUAUUACGGCUU | -0.695 ± 0.076 | 0.252 ± 0.098
ACUAAGCAAUAUUACGUGAC | -3.82 ± 0.21 | -1.28 ± 0.14
CCGUAGCAAUAUUACGUAUA | -2.74 ± 0.18 | -2.72 ± 0.27
UAGCAGCAAUAUUACGCAAG | -3.04 ± 0.23 | -1.76 ± 0.21
CGAAAGCAAUAUUACGUGAC | -3.45 ± 0.12 | -2.22 ± 0.13
GGUUAGCAAUAUUACGCGCG | -0.271 ± 0.15 | 0.879 ± 0.15
GGAAAGCAAUAUUACGCACG | -1.16 ± 0.19 | 0.0479 ± 0.17
GGUUAGCAAUAUUACGGUUU | -0.608 ± 0.086 | -0.0158 ± 0.11
CGUAAGCAAUAUUACGCGCC |  | -1.97 ± 0.35
CGUUAGCAAUAUUACGCCGC | -3.14 ± 0.3 | -2.73 ± 0.43
AGCUAGCAAUAUUACGGUGU | -2.56 ± 0.11 | -1.22 ± 0.11
GGUGAGCAAUAUUACGACUU | -0.531 ± 0.11 | 0.294 ± 0.12

Sequence | self-splicing fitness (ln) (30 °C) | self-splicing fitness (ln) (37 °C)
GAUCAGCAAUAUUACGCACU | 0.181 ± 0.092 | 0.467 ± 0.1
GUCAAGCAAUAUUACGUUAG | -4.36 ± 0.24 | -3.3 ± 0.23
GUAUAGCAAUAUUACGAAGG | -3.44 ± 0.36 | -1.61 ± 0.29
AUUUAGCAAUAUUACGCGAG | -2.19 ± 0.22 | -0.658 ± 0.2
GCCCAGCAAUAUUACGGCCC | -1.09 ± 0.18 | -0.738 ± 0.32
UAGGAGCAAUAUUACGUUUU | -1.88 ± 0.23 | -1.89 ± 0.27
AACAAGCAAUAUUACGUGAA | -2.08 ± 0.082 | -0.353 ± 0.081
UCGUAGCAAUAUUACGGGUG | -1.66 ± 0.11 | -2.66 ± 0.14
AACGAGCAAUAUUACGGUGC | -3.15 ± 0.3 | -2.69 ± 0.33
UGAAAGCAAUAUUACGAGGC | -3.66 ± 0.28 | -2.36 ± 0.21
GGCAAGCAAUAUUACGCUUA | -0.449 ± 0.076 | 0.129 ± 0.1
GAUAAGCAAUAUUACGCGUG | -0.603 ± 0.072 | -0.471 ± 0.088
GUAGAGCAAUAUUACGCAUA | -1.58 ± 0.14 | -1.59 ± 0.17
UCAGAGCAAUAUUACGGGUC | -3.97 ± 0.34 | -2.12 ± 0.32
UUAGAGCAAUAUUACGGUGA | -0.868 ± 0.067 | -0.176 ± 0.08
CUUCAGCAAUAUUACGAAUG | -0.722 ± 0.065 | -0.456 ± 0.093
GGGUAGCAAUAUUACGAAAA | -0.788 ± 0.35 | 
AGUGAGCAAUAUUACGUCUC |  | -2.46 ± 0.36
CCACAGCAAUAUUACGCACA | -2.44 ± 0.15 | -2.33 ± 0.25
GAGAAGCAAUAUUACGGGGG |  | -1.8 ± 0.47
AGUCAGCAAUAUUACGACAU | 0.0908 ± 0.012 | -0.0465 ± 0.032
AUAGAGCAAUAUUACGACAG | -2.6 ± 0.18 | -0.985 ± 0.2
UGCGAGCAAUAUUACGGAAG |  | -2.26 ± 0.34
CCCCAGCAAUAUUACGAGCC | -3.75 ± 0.26 | -2.54 ± 0.25
CCGGAGCAAUAUUACGAGUG | -1.61 ± 0.076 | -0.14 ± 0.084
